Biological target: PTB RRM1 (UniProt P26599 41-163)
Experiment: ITC

Sequence of PTB RRM1 (P26599 41-163): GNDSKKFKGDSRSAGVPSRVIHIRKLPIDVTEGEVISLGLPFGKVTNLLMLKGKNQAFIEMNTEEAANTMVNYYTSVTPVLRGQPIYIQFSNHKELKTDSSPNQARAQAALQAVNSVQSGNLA

Binder: UCUCU (ssRNA) [CU 5-mer RNA]
- Kd: 24.7 µM

— paper PMC3931528
